Among the data in patent US20110124572A1, “SYNDECAN-4 IS A REGULATOR OF RAC1-GTP” (priority 2008, published 2011) are amount of pulled-down syndecan-4 against the Ser179Ala line (% less than Ser179Ala line) values, retold here.

This assay concerns the target p21-binding domain of PAK-1 fused to agarose beads (GST-Pak1-Rac/Cdc42-binding domain), as used in the Rac1 activation kit (UniProt Q13153). In words: PAK-1 p21-binding domain (PAK-PKB) pull-down from cell lysate, blot with anti-syndecan-4 or anti-GFP.

Chain of p21-binding domain of PAK-1 fused to agarose beads (GST-Pak1-Rac/Cdc42-binding domain), as used in the Rac1 activation kit (Q13153 67-150 limits assumed): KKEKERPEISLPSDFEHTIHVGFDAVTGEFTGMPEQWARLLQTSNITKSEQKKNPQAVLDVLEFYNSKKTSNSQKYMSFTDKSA

Regarding “wt-syndecan-4-GFP chimera (human syndecan-4, wild type, GFP inserted at position 131) (from UniProt P31431 19-198)”, the amount of pulled-down syndecan-4 against the Ser179Ala line (% less than Ser179Ala line) came out at 20.
